# Patent US11466255B2, “Methods and compositions for converting non-endocrine pancreatic tissue into insulin-producing cells” (UNIVERSITY OF MIAMI, priority 2015, dated 2022)
# B1: BMP-7: 35 kDa homodimeric protein of the TGF-β superfamily; FDA-approved agent; human mature chain SEQ ID NO:1/2 (protein, listed as Homo sapiens)
# chain: IRSTGSKQRSQNRSKTPKNQEALRMANVAENSSSDQRQACKKHELYVSFRDLGWQDWIIAPEGYAAYYCEGECAFPLNSYMNATNHAIVQTLVHFINPETVPKPCCAPTQLNAISVLYFDDSSNVILKKYRNMVVRACGCH
# modifications: homodimer; human mature chain of BMP-7 (NCBI Reference Sequence NM_001719.2) comprising peptide from 293-431
# Key:
# [1] = system: SMAD1/5/8 phosphorylation; assay: SMAD1/5/8 phosphorylation by immunofluorescence in hNEPT; type: cell-based, human; settings: 2 h after the addition of BMP-7 to hNEPT
# Source text: In order to study the mechanism behind the effects of BMP-7 on hNEPT preparations, the potential receptors engaged by BMP-7 were studied. BMP-7 binds with high affinity to heteromeric complexes formed by BMPR2 (Bone Morphogenetic Receptor Type II) and the activin-like kinase (ALK) ALK3, ALK6 or ALK2 type I serine/threonine kinase receptors^25. […] These findings are consistent with numerous reports that identify ALK3 as the receptor that mediates BMP-7 function in several biological models of regeneration, including adult liver regrowth^23, differentiation of epidermal Langerhans cells^24 and kidney regeneration and fibrosis reversa1^22. The activation of the canonical BMP signaling pathway entails the phosphorylation of SMAD1/5/8 upon ALK3 engagement.
# IF analysis and confocal microscopy: The present study was conducted on human pancreatic samples from cadaveric organ donors. In addition to our own cGMP facility, the Network for Pancreatic Organ Donors with Diabetes (nPOD, www.jdrfnpod.org)55 also provided tissue sections. For IF staining, 5 μm-thick frozen sections or cultured cells were fixed with 4% paraformaldehyde (PFA) for 20 min at room temperature, rinsed with HBSS, washed (3 x 5 min each) with lx Supersensitive Wash Buffer (Biogenex HK583-5K) and then incubated in permeabilization buffer PBSTr [0.2% Triton X-100 (Sigma-Aldrich) in PBS] for 30 min at room temperature. […]
# ALK3- fraction of hNEPT = assay: BMP-7 response of ALK3- fraction; type: cell-based, human; settings: qRT-PCR
# Experimental: Magnetic bead-based methods (Miltenyi) were used for the enrichment of ALK3+ cells from hNEPT. Both enriched and negative fractions are subsequently plated and treated with BMP-7 or left untreated (controls).
# The identity of sorted cells is confirmed by IF, and aliquots are cultured in adherent conditions. Single sorted pancreatic cells are notoriously difficult to culture in plastic, which is addressed by using a combination of Matrigel®-coated plates and fully defined media [STEMPRO® (Thermofisher Scientific, Grand Island, N.Y.) or Kubota's Medium® (PhoenixSongs Biologicals Branford, Conn.)]^8,29,48,49 Matrigel® is used to grow multipotent pancreatic cells^50,51. Colonies from dissociated ALK3^+ cells sorted from fresh hNEPT are readily grown in these conditions, and resemble those obtained from the MPD without sorting. The typical “ring” morphology described by others^50,51 is observed when plating ALK3^+ cells in 3D conditions or fibroblast feeder cells.
# nude rat (RNU) grafts = assay: Local BMP-7 delivery to hNEPT or PR2Y1+/ALK3+ cells under kidney capsule of nude rats; type: in vivo; settings: POD +21
# Source text: The nude rat (RNU, Crl:NIH-Foxn1^rnu) is chosen over mice due to the specific BMP-7 local delivery system designed for this purpose, requiring surgical procedures for which a larger animal size would be beneficial. […] The kidney sub-capsular space of rodents is a well-established ectopic site for pancreatic cell (and particularly islet) transplantation^54,55. There are reports of success in the continuous delivery of compounds to pancreatic cells previously implanted under the kidney capsule of rats^38 using Alzet® osmotic pumps that release solution at a rate of 0.5 μl/h for 2 weeks.
# While exocrine and endocrine cells coexist in the pancreas, cultured hNEPT lack native ECM for proper compartmentalization, and acinar secretions may be harmful for endocrine cells^37. Acinar cells present in hNEPT after BMP-7 treatment persist in grafts^17. This observation was hypothesized to be one reason behind the sub-optimal performance of BMP-7-treated hNEPT in vivo (see Example 2). […] The first phase of these studies transplants unfractionated hNEPT (0.5-1×10^7 cells) previously grown for 48h in attachment (prior to BMP-7 treatment) under the kidney capsule of nude rats. […] Rats are euthanized at POD +21 and their grafts analyzed by IF for C-peptide as well as the 15 pancreatic marker panel of Example 8. […]
molecule,measurement,setting,value
B1,SMAD1/5/8 phosphorylation in ALK3-expressing cells,[1],presented SMAD1/5/8 phosphorylation
same,response to BMP-7,ALK3- fraction of hNEPT,did not show any response
same,islet-like structures within the graft,"nude rat (RNU) grafts; PR2Y1+/ALK3+ cell graft, BMP-7 by iPRECIO pump",abundant islet-like structures within the graft
same,in vivo β-like cell formation compared to controls,"nude rat (RNU) grafts; unfractionated hNEPT graft, BMP-7 by pump for 14 d",Substantial in vivo β-like cell formation
